Positions count from the first letter of the chain named.
B1: Flag-ARAP1 (natural protein, human, UniProt Q96P48 1-1450, looked up)
chain: MAEAGDAALSVAEWLRALHLEQYTGLFEQHGLVWATECQGLSDTRLMDMGMLLPGHRRRILAGLLRAHTSPAPAPRPTPRPVPMKRHIFRSPPVPATPPEPLPTTTEDEGLPAAPPIPPRRSCLPPTCFTTPSTAAPDPVLPPLPAKRHLAELSVPPVPPRTGPPRLLVSLPTKEEESLLPSLSSPPQPQSEEPLSTLPQGPPQPPSPPPCPPEIPPKPVRLFPEFDDSDYDEVPEEGPGAPARVMTKKEEPPPSRVPRAVRVASLLSEGEELSGDDQGDEEEDDHAYEGVPNGGWHTSSLSLSLPSTIAAPHPMDGPPGGSTPVTPVIKAGWLDKNPPQGSYIYQKRWVRLDTDHLRYFDSNKDAYSKRFISVACISHVAAIGDQKFEVITNNRTFAFRAESDVERKEWMQALQQAMAEQRARARLSSAYLLGVPGSEQPDRAGSLELRGFKNKLYVAVVGDKVQLYKNLEEYHLGIGITFIDMSVGNVKEVDRRSFDLTTPYRIFSFSADSELEKEQWLEAMQGAIAEALSTSEVAERIWAAAPNRFCADCGAPQPDWASINLCVVICKRCAGEHRGLGAGVSKVRSLKMDRKVWTETLIELFLQLGNGAGNRFWAANVPPSEALQPSSSPSTRRCHLEAKYREGKYRRYHPLFGNQEELDKALCAAVTTTDLAETQALLGCGAGINCFSGDPEAPTPLALAEQAGQTLQMEFLRNNRTTEVPRLDSMKPLEKHYSVVLPTVSHSGFLYKTASAGKLLQDRRAREEFSRRWCVLGDGVLSYFENERAVTPNGEIRASEIVCLAVPPPDTHGFEHTFEVYTEGERLYLFGLESAEQAHEWVKCIAKAFVPPLAEDLLARDFERLGRLPYKAGLSLQRAQEGWFSLSGSELRAVFPEGPCEEPLQLRKLQELSIQGDSENQVLVLVERRRTLYIQGERRLDFMGWLGAIQKAAASMGDTLSEQQLGDSDIPVIVYRCVDYITQCGLTSEGIYRKCGQTSKTQRLLESLRQDARSVHLKEGEQHVDDVSSALKRFLRDLPDGLFTRAQRLTWLEASEIEDEEEKVSRYRELLVRLPPVNRATVKALISHLYCVQCFSDTNQMNVHNLAIVFGPTLFQTDGQDYKAGRVVEDLINHYVVVFSVDEEELRKQREEITAIVKMRVAGTASGTQHAGDFICTVYLEEKKAETEQHIKVPASMTAEELTLEILDRRNVGIREKDYWTCFEVNEREEAERPLHFAEKVLPILHGLGTDSHLVVKKHQAMEAMLLYLASRVGDTKHGMMKFREDRSLLGLGLPSGGFHDRYFILNSSCLRLYKEVRSQRPWSGAPETSHRPEKEWPIKSLKVYLGVKKKLRPPTCWGFTVVHETEKHEKQQWYLCCDTQMELREWFATFLFVQHDGLVWPSEPSRVSRAVPEVRLGSVSLIPLRGSENEMRRSVAAFTADPLSLLRNV
B2: Flag-[R86/90A]ARAP1 (natural protein, human, UniProt Q96P48 1-1450, looked up)
chain: B1 chain with R86A, R90A

Biological target: GST-fused full length CIN85 (human, UniProt Q96B97-1 1-665)
Test: pull-down

Chain of GST-fused full length CIN85 (Q96B97 whole entry, the tested form may be a part): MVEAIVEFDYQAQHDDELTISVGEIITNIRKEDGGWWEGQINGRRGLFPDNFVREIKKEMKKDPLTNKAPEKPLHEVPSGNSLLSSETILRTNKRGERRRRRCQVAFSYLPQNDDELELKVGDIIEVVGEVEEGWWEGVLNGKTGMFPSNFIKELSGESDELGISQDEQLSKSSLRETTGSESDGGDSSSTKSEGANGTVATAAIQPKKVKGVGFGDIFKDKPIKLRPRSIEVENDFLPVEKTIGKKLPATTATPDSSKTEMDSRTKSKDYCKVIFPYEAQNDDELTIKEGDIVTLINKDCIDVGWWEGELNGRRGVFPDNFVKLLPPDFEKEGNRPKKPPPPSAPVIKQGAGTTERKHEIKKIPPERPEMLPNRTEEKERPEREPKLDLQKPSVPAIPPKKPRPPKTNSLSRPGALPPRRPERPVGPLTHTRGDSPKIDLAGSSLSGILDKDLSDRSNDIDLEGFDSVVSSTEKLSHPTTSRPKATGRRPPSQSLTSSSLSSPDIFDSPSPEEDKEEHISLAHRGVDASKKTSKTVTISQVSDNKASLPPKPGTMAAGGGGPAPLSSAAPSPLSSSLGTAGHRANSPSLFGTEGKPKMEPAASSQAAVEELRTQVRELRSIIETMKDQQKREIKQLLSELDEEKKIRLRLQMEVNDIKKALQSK

Binder | EC50 | fold more GST-CIN85 required for similar binding than for Flag-ARAP1
B1 | 5.6 ± 0.9 nM | 
B2 |  | 8 fold

Reference: PMC3495168 (Biology of the cell / under the auspices of the European …, 2011)
